Measured values reported in patent publication US20240228568A1 (CENTRO DE INGENIER A GEN TICA Y BIOTECNOLOG A, published 2024).
Where no end group is shown, it is not given here. [ ]: non-standard residue; d: D form.

T1: IL-15 receptor subunit on CTLL-2 cells
T1 sequence (Q60819 whole entry, species assumed, looked up): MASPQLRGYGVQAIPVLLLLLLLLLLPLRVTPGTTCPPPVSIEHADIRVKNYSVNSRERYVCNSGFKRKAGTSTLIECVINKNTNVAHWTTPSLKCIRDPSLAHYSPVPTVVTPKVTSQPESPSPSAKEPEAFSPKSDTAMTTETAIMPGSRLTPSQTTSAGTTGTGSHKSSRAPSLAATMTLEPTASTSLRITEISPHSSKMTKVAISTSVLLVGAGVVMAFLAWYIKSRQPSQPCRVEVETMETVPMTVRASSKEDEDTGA


Experiments:
[1] = target: T1, IL-15 receptor subunit on CTLL-2 cells; assay: cell-based or functional assay
[2] = target: T1, IL-15 receptor subunit on CTLL-2 cells; assay: cell-based or functional assay; remark: listed apart in the source

IC50 in the CTLL-2 cell proliferation assay [1] [µM] | antagonist effect on IL-15-induced proliferation, fold against Peptide 1 [2] [times] | antagonist effect on IL-15-induced proliferation, fold against Peptide 5 [2] [times] | Binder
130 |  |  | KVTAMKCFLL (not fully specified (C-terminus)) [Peptide 1]
8 | 16 | 3 | KVT[dA]MKCFLL-NH2 (also: disulfide-linked homodimer through the Cys) [Peptide 12]
28 |  |  | KVT[dA]MKCFLL-NH2 [Peptide 5]
